Laboratory results from patent publication US6960658B1, “Maspin transcriptional regulatory sequences and uses thereof” (Dana-Farber Cancer Institute, Inc., priority 1996, dated 2005).

Legend:
[1] = system: maspin HRE element (pBLAp1/HRE reporter) in CF3 and LNCaP cells; assay: CAT assay of pBLAp1/HRE construct with or without androgen (R1881) treatment; type: cell-based, human; settings: 50 nM R1881 vs vehicle added after transfection
Method: For construction of pBLAp1/HRE, pairs of OL8 and OL9 oligos were annealed as described above. The annealed product was phosphorylated by T4 polynucleotide kinase, and ligated to the BamHI site of pBLAp1 (pBLCAT2 containing three copies of Ap1) to generate pBLAp1/HRE (FIG. 12).
Cells were plated at 1 ×106/p100 and grown to about 75% confluence. SNA was transfected by the method of modified DEAE-Dextran (Promega, Inc., Madison, Wis.). The amounts of DNAs used were: 10 μg reporter plasmid, except for PCMVCAT in which only 2 μg of DNA was used. 1 μg of pCMVβgal was used as an internal control for transfection efficiency. For the androgen treatment, 50 nM methyltrienolone.(R1881, from Du Pont-New England Nuclear, Inc., Boston, Mass.) or vehicle was added to the cultures after transfection. […] The β-galactosidase activity in the extracts was calculated as described by Swisshelm et al. (Cell Growth Differ. 5:133, 1994). Twenty units of extracts (calculated by β-galactosidase activity) were used for each CAT assay except for transfection with pCMVCAT positive control in which only 10 units of extracts were used because of high activity. […] Quantitation of acetylated […] and nonacetylated chloramphenicol was performed by cutting out the appropriate regions of the silica gel TLC plate and counting in BioFluor (DuPont, Wilmington, Del.). […]

tumor cells [2] = settings: expressed in tumor transfectants or added as recombinant maspin; Sheng et al. 1994; cited from earlier work
tumor cells [3] = settings: Sager et al. 1995; cited from earlier work

Molecule | effect of R1881 treatment on HRE-mediated inhibition of promoter (CAT) activity [1] | invasion in a Boyden chamber assay (tumor cells [2]) | mobility of tumor cells (tumor cells [3])
C[C@]1(O)CC[C@H]2[C@@H]3CCC4=CC(=O)CCC4=C3C=C[C@@]21C [R1881, methyltrienolone] | Little difference in inhibition |  | 
Maspin: a serpin expressed in normal human mammary epithelial cells (protein, UniProt P36952 1-375, looked up) Serpin B5: MDALQLANSAFAVDLFKQLCEKEPLGNVLFSPICLSTSLSLAQVGAKGDTANEIGQVLHFENVKDVPFGFQTVTSDVNKLSSFYSLKLIKRLYVDKSLNLSTEFISSTKRPYAKELETVDFKDKLEETKGQINNSIKDLTDGHFENILADNSVNDQTKILVVNAAYFVGKWMKKFSESETKECPFRVNKTDTKPVQMMNMEATFCMGNIDSINCKIIELPFQNKHLSMFILLPKDVEDESTGLEKIEKQLNSESLSQWTNPSTMANAKVKLSIPKFKVEKMIDPKACLENLGLKHIFSEDTSDFSGMSETKGVALSNVIHKVCLEITEDGGDSIEVPGARILQHKDELNADHPFIYIIRHNKTRNIIFFGKFCSP |  | inhibits invasion | inhibit mobility of tumor cells
